Blank lines part the entries; values can stand above or below the molecule they belong to.
B3: human SALM5 LRR–Ig-His6 (residues 18–378) (domain or fragment, UniProt Q96NI6 18-378, looked up)
chain: QICPKRCVCQILSPNLATLCAKKGLLFVPPNIDRRTVELRLADNFVTNIKRKDFANMTSLVDLTLSRNTISFITPHAFADLRNLRALHLNSNRLTKITNDMFSGLSNLHHLILNNNQLTLISSTAFDDVFALEELDLSYNNLETIPWDAVEKMVSLHTLSLDHNMIDNIPKGTFSHLHKMTRLDVTSNKLQKLPPDPLFQRAQVLATSGIISPSTFALSFGGNPLHCNCELLWLRRLSREDDLETCASPPLLTGRYFWSIPEEEFLCEPPLITRHTHEMRVLEGQRATLRCKARGDPEPAIHWISPEGKLISNATRSLVYDNGTLDILITTVKDTGAFTCIASNPAGEATQIVDLHIIKLP
notes: human SALM5 (synaptic adhesion-like molecule 5, Lrfn family), LRR–Ig, residues 18–378; Homodimer by SEC-MALS; The synaptogenic assay used another construct (entire ECD fused to Fc); also called SALM5 WT; apo-SALM5; source: Expi293F, transiently expressed, secreted, purified (Ni-NTA, Superdex200 SEC); not shown: His6, C-terminal, kept

Tests used:
[1] = biological target: human SALM5 LRR–Ig-His6 (residues 18–378) (human) (UniProt Q96NI6); assay: SPR; Biacore T200, 25 °C, 10 mM Hepes-Na (pH 7.5), 200 mM NaCl, 0.05% Tween20; SALM5 proteins immobilised on a CM5 chip by amino coupling; PTPδ proteins injected as analytes (0.1–260 μM)
[2] = biological target: human SALM5 LRR–Ig-His6 I321A (human) (UniProt Q96NI6); assay: as above
[3] = biological target: human SALM5 LRR–Ig-His6 I358A (human) (UniProt Q96NI6); assay: as above
[4] = biological target: human SALM5 LRR–Ig-His6 L249A (human) (UniProt Q96NI6); assay: as above
[5] = biological target: human SALM5 LRR–Ig-His6 L288A (human) (UniProt Q96NI6); assay: as above
[6] = biological target: human SALM5 LRR–Ig-His6 Q134N (human) (UniProt Q96NI6); assay: as above
[7] = biological target: human SALM5 LRR–Ig-His6 R253A (human) (UniProt Q96NI6); assay: as above
IL1RAPL1 (Mus musculus) = IL1RAPL1 (Mus musculus) (UniProt P59823); conditions: cited from earlier work
Sequence of IL1RAPL1 (Mus musculus) (P59823 25-357): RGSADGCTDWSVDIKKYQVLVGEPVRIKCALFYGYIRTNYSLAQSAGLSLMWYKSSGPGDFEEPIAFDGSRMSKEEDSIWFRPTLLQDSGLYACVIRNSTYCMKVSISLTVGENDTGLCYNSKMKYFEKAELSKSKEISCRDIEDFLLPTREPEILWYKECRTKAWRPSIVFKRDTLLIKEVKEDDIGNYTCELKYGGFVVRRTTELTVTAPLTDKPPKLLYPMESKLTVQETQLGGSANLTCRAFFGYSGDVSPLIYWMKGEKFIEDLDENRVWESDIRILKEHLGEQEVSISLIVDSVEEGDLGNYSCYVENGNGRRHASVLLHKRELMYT

[8] = biological target: B3; assay: SPR; Biacore T200, 25 °C, 10 mM Hepes-Na (pH 7.5), 200 mM NaCl, 0.05% Tween20; SALM5 proteins immobilised on a CM5 chip by amino coupling; PTPδ proteins injected as analytes (0.1–260 μM); conditions: both partners purified
[9] = biological target: the molecule itself; assay: SEC-MALS; SALM LRR–Ig proteins at 0.5 g/L on ENrich SEC 650 in 20 mM Tris-HCl (pH 7.4), 250 mM NaCl; dimer of monomers
[10] = biological target: mouse PTPδ Ig1–Fn1 (A9B–) (mouse, UniProt Q64487 28-418, B– (meB insert 234ELRE237 absent)); assay: SPR; Biacore T200, 25 °C, 10 mM Hepes-Na (pH 7.5), 200 mM NaCl, 0.05% Tween20; SALM5 proteins immobilised on a CM5 chip by amino coupling; PTPδ proteins injected as analytes (0.1–260 μM); conditions: both partners purified

Molecule: mouse PTPδ Ig1–Fn1 (A9B+)-His6 Y273A (domain or fragment)
- Kd [1]: 77.5 µM

Molecule: PTPδ (from UniProt Q64487)
- Kd (IL1RAPL1 (Mus musculus)): 0.15 µM

Molecule: mouse PTPδ Ig1–Fn1 (A9B+)-His6 M312A (domain or fragment)
- Kd [1]: 37.3 µM

Molecule: mouse PTPδ Ig1–Fn1 (A9B+)-His6 V143A (domain or fragment)
- Kd [1]: 150 µM

Molecule: B3
- stoichiometry N [9]: 2
- Kd [10]: 106 ± 17 µM

B4: mouse SALM2 LRR–Ig-His6 (residues 32–390) (domain or fragment, UniProt Q2WF71 32-390, looked up)
chain: QPCPGRCICQNVAPTLTMLCAKTGLLFVPPAIDRRVVELRLTDNFIAAVRRRDFANMTSLVHLTLSRNTIGQVAAGAFADLRALRALHLDSNRLAEVRGDQLRGLGNLRHLILGNNQIRKVESAAFDAFLSTVEDLDLSYNNLEALPWEAVGQMVNLNTLTLDHNLIDHIAEGTFVQLHKLVRLDMTSNRLHKLPPDGLFLRSQGGGPKPPTPLTVSFGGNPLHCNCELLWLRRLTREDDLETCATPEHLTDRYFWSIPEEEFLCEPPLITRQAGGRALVVEGQAVSLRCRAVGDPEPVVHWVAPDGRLLGNSSRTRVRGDGTLDVTITTLRDSGTFTCIASNAAGEATAPVEVCVVPL
notes: mouse SALM2 (synaptic adhesion-like molecule 2, Lrfn family), LRR–Ig, residues 32–390; Homodimer by SEC-MALS; source: Expi293F, transiently expressed, secreted, purified (Ni-NTA, Superdex200 SEC); not shown: His6, C-terminal, kept
- stoichiometry N [9]: 2

The next lines start with the values.

- Kd [1]: 14.4 µM
- Kd [2]: 21.9 µM
- Kd [3]: 31.4 µM
- Kd [4]: 169 µM
- Kd [5]: 129 µM
- Kd [6]: 9 µM
- Kd [7]: 95.2 µM
Molecule: mouse PTPδ Ig1–Fn1 (A9B+)-His6 (domain or fragment)

- Kd [1]: 39.9 µM
Molecule: mouse PTPδ Ig1–Fn1 (A9B+)-His6 M137A (domain or fragment)

- Kd [1]: 13.5 µM
Molecule: mouse PTPδ Ig1–Fn1 (A–B+) (from UniProt Q64487 28-418) (domain or fragment)

- Kd [1]: 25 µM
Molecule: mouse PTPδ Ig1–Fn1 (A9B+)-His6 L153A (domain or fragment)

- Kd [1]: 70.9 µM
Molecule: mouse PTPδ Ig1–Fn1 (A9B+)-His6 Y231A (domain or fragment)

- Kd [8]: 21.9 ± 0.23 µM
B1: mouse PTPδ Ig1–Fn1 (A9B+)-His6 Q209A (domain or fragment)
chain: ETPPRFTRTPVDQTGVSGGVASFICQATGDPRPKIVWNKKGKKVSNQRFEVIEFDDGSGSVLRIQPLRTPRDEAIYECVASNNVGEISVSTRLTVLREDQIPRGFPTIDMGPQLKVVERTRTATMLCAASGNPDPEITWFKDFLPVDTSNNNGRIKQLRSESIGGTPIRGALQIEQSEESDAGKYECVATNSAGTRYSAPANLYVRELREVRRVPPRFSIPPTNHEIMPGGSVNITCVAVGSPMPYVKWMLGAEDLTPEDDMPIGRNVLELNDVRQSANYTCVAMSTLGVIEAIAQITVKALPKPPGTPVVTESTATSITLTWDSGNPEPVSYYIIQHKPKNSEEPYKEIDGIATTRYSVAGLSPYSDYEFRVVAVNNIGRGPASEPVLTQ

- Kd [8]: 24.8 ± 1.2 µM
B2: mouse PTPδ Ig1–Fn1 (A9B+)-His6 R233A (domain or fragment)
chain: ETPPRFTRTPVDQTGVSGGVASFICQATGDPRPKIVWNKKGKKVSNQRFEVIEFDDGSGSVLRIQPLRTPRDEAIYECVASNNVGEISVSTRLTVLREDQIPRGFPTIDMGPQLKVVERTRTATMLCAASGNPDPEITWFKDFLPVDTSNNNGRIKQLRSESIGGTPIRGALQIEQSEESDQGKYECVATNSAGTRYSAPANLYVAELREVRRVPPRFSIPPTNHEIMPGGSVNITCVAVGSPMPYVKWMLGAEDLTPEDDMPIGRNVLELNDVRQSANYTCVAMSTLGVIEAIAQITVKALPKPPGTPVVTESTATSITLTWDSGNPEPVSYYIIQHKPKNSEEPYKEIDGIATTRYSVAGLSPYSDYEFRVVAVNNIGRGPASEPVLTQ
